Data set [1] concerns PSA capture agent biligand biotin-PEG5-cyclic(CVFAHNYDYLVC)-Tz5-Gllffk.
In data set [2] the test system is PSA anchor ligand biotin-PEG5-cyclic(CVFAHNYDYLVC).

“human prostate specific antigen (free PSA, Scripps Laboratories #P0725)”: the enzyme activity of PSA against the chromogenic substrate Suc-Arg-Pro-Tyr-pNA (absorbance at 405 nm) in data set [1] and in data set [2] was 3 fold in each case.

These data come from patent US20150093758.
